# How the values were obtained:
# Experiment in all cases: Kinetic parameters for hydrolysis of internally quenched fluorogenic peptides by secPHEX
# Assay type in all cases: biochemical, human
# Conditions in all cases: other: 37° C., 10 mM Bis-Tris buffer pH 5.5, 150 mM NaCl
# [1] = substrate: CSCC[C@H](NC(=O)[C@H](CC(C)C)NC(=O)c1ccccc1N)C(=O)N[C@@H](CCSC)C(=O)N[C@@H](CC(=O)O)C(=O)N[C@@H](Cc1ccccc1)C(=O)N[C@@H](CCCNC(=N)N)C(=O)NCC(=O)N[C@@H](CCC(N)=O)C(=O)NCCNc1ccc([N+](=O)[O-])cc1[N+](=O)[O-]
# Experimental: (§1) The human recombinant secPHEX was obtained following the procedure previously described (17, WO 00/50580). Purified secPHEX concentration was determined using the Bradford method (DC protein assay kit; Bio-Rad, Mississauga, ON, Canada). Membrane-bound recombinant human PHEX was expressed in LLC-PK1 cells (17, (WO 00/50580)) and membranes were prepared essentially as described by Guo et al. (34). Briefly, transfected cells resuspended in lysis buffer (150 mM NaCl, 20 mM Tris.HCl, pH 7.6) were disrupted by sonication. Cell debris were removed by centrifugation at 300 g for 15 min at 4 °C. Membranes were collected by centrifugation at 30,000 g for 50 min and solubilized for 2h with 1% n-dodecyl-β-D-maltoside in lysis buffer. Insoluble material was pelleted by centrifugation at 10,000 g for 15 min and protein concentrations of the supernatant determined using the Bradford method described above. PHEX amounts were evaluated by immunoblotting as described previously (17). NEP expression and purification were performed as described previously (36).
# (§2) The hydrolysis of the IQFPs, at 37° C., in 10 mM Bit-Tris buffer pH 5.5 (0.35 to 1.0 ml final volume) containing 150 mM NaCl, was continuously followed measuring the fluorescence at γem=420 nm and γex=320 nm in a Hitachi F-2000™ spectrofluorometer. The cuvefte containing the buffer and the substrate was placed in a thermostatically controlled cell compartment for 5 min before the addition of the enzyme and the increase in fluorescence with time was continuously recorded for 5-10 min. The enzyme concentration for initial rate determination was chosen at a level intended to hydrolyze less than 5% of the substrate present. The slope was converted into micromoles of substrate hydrolyzed per min based on a calibration curve obtained from complete hydrolysis of each peptide. The inner-filter effect was corrected using an empirical equation as previously described (43). The kinetic parameters Km and kcat were calculated by the non-linear regression data analysis Grafit program (42). The kcat/Km values were calculated as the ratio of these two determined parameters. The apparent second order rate constant kcat/Km (*kIt/Km) was determined under pseudo first-order conditions, where [S]<<Km. These determinations were performed in two different substrate concentrations and the errors were less than 5% for any obtained value.
# (§3) To determine the position of cleavage in peptides of the IQFPs combinatorial libraries, the products resulting from hydrolysis by secPHEX were submitted to N-terminal amino acid sequencing in a PPSQ-23protein sequencer (Shimadzu Tokyo, Japan). The scissile bonds in the IQFPs secPHEX substrates derived from PTHrP107-139, FGF-23and MEPE were determined by amino acid sequencing and by MALDI-TOF™ mass spectrometry (TofSpec-E™, Micromass, Manchester, U.K.) after isolation of the fragments resulting from the hydrolysis by secPHEX by analytical HPLC.
# (§4) The assays were performed at 37° C., in 10 mM Bis-Tris buffer pH 5.5, containing 150 mM NaCl. Measurements were made as described under the heading “Experimental Procedures” above. Cleavage sites are indicated as arrows (↓). The standard deviations of the kinetic constants were less than 5%.
# (§5) The assays were performed at 37° C., in 10 mM Bis-Tris buffer pH 5.5, containing 150 mM NaCl. Measurements were made as described under the heading “Experimental Procedures” above. Cleavage sites are indicated by arrows (↓). The standard deviations of the kinetic constants were less than 5%.
# (§6) The assays were. performed at 37° C., in 10 mM Bis-Tris buffer pH 5.5, containing 150 mM NaCl. Measurements were made as described under the heading “Experimental Procedures” above. Cleavage sites are indicated by arrows (↓). The standard deviations of the kinetic constants were less than 5%.
# (§7) The assays were performed at 37° C., in 10 mM Bis-Tris buffer pH 5.5, containing 150 mM NaCl. Measurements were made as described under “Experimental Procedures”. […]
# [2] = substrate: C[C@H](NC(=O)[C@H](C)NC(=O)[C@H](CC(=O)O)NC(=O)[C@H](CO)NC(=O)[C@H](CO)NC(=O)CNC(=O)c1ccccc1N)C(=O)N[C@@H](CCC(=O)O)C(=O)N[C@@H](CCC(N)=O)C(=O)NCCNc1ccc([N+](=O)[O-])cc1[N+](=O)[O-]
# Experimental: as §1, §2, §3, §4, §5, §6, §7
# [3] = substrate: CC[C@H](C)[C@H](NC(=O)[C@H](CC(=O)O)NC(=O)[C@H](CC(N)=O)NC(=O)[C@H](CO)NC(=O)CNC(=O)c1ccccc1N)C(=O)N[C@@H](CCSC)C(=O)NCC(=O)N[C@@H](CCC(N)=O)C(=O)NCCNc1ccc([N+](=O)[O-])cc1[N+](=O)[O-]
# Experimental: as §1, §2, §3, §4, §5, §6, §7
# [4] = substrate: C[C@H](NC(=O)[C@H](CO)NC(=O)[C@H](CCCNC(=N)N)NC(=O)[C@@H](NC(=O)[C@H](Cc1c[nH]cn1)NC(=O)[C@H](CCCNC(=N)N)NC(=O)[C@H](CCCNC(=N)N)NC(=O)c1ccccc1N)[C@@H](C)O)C(=O)N[C@@H](CCC(=O)O)C(=O)N[C@@H](CC(=O)O)C(=O)N[C@@H](CC(=O)O)C(=O)N[C@@H](CO)C(=O)N[C@@H](CCC(=O)O)C(=O)N[C@@H](CCCNC(=N)N)C(=O)N[C@@H](CCC(N)=O)C(=O)NCCNc1ccc([N+](=O)[O-])cc1[N+](=O)[O-]
# Experimental: as §1, §2, §3, §4, §5, §6, §7
protein,measurement,setting,value
"human recombinant secPHEX (Homo sapiens) (protein, pure soluble form of PHEX (secPHEX); made in house) SLQAKQEYCLKPECIEAAAAILSKVNLSVDPCDNFFRFACDGWISNNPIPEDMPSYGVYPWLRHNVDLKLKELLEKSISRRRDTEAIQKAKILYSSCMNEKAIEKADAKPLLHILRHSPFRWPVLESNIGPEGVWSERKFSLLQTLATFRGQYSNSVFIRLYVSPDDKASNEHILKLDQATLSLAVREDYLDNSTEAKSYRDALYKFMVDTAVLLGANSSRAEHDMKSVLRLEIKIAEIMIPHENRTSEAMYNKMNISELSAMIPQFDWLGYIKKVIDTRLYPHLKDISPSENVVVRVPQYFKDLFRILGSERKKTIANYLVWRMVYSRIPNLSRRFQYRWLEFSRVIQGTTTLLPQWDKCVNFIESALPYVVGKMFVDVYFQEDKKEMMEELVEGVRWAFIDMLEKENEWMDAGTKRKAKEKARAVLAKVGYPEFIMNDTHVNEDLKAIKFSEADYFGNVLQTRKYLAQSDFFWLRKAVPKTEWFTNPTTVNAFYSASTNQIRFPAGELQKPFFWGTEYPRSLSYGAIGVIVGHEFTHGFDNNGRKYDKNGNLDPWWSTESEEKFKEKTKCMINQYSNYYWKKAGLNVKGKRTLGENIADNGGLREAFRAYRKWINDRRQGLEEPLLPGITFTNNQLFFLSYAHVRCNSYRPEAAREQVQIGAHSPPQFRVNGAISNFEEFQKAFNCPPNSTMNRGMDSCRLW",Km,[1],17.0 µM
same,kcat,[1],0.8 s⁻¹
same,kcat/Km,[1],45000 M⁻¹ s⁻¹
same,Km,[2],2.4 µM
same,kcat,[2],0.3 s⁻¹
same,kcat/Km,[2],125000 M⁻¹ s⁻¹
same,Km,[3],13.0 µM
same,kcat,[3],0.01 s⁻¹
same,kcat/Km,[3],800 M⁻¹ s⁻¹
same,Km,[4],3.0 µM
same,kcat,[4],0.2 s⁻¹
same,kcat/Km,[4],66700 M⁻¹ s⁻¹

# From patent US20060292657A1, “Phex substrates and methods using same” (priority 2003, published 2006)
